Columns and labels:
Test in all cases: SPR, albumin immobilized, Adnectin 250 nM
rat serum albumin = target: T1, rat serum albumin (rat, UniProt P02770 25-608)
T1 construct: also called Rat SA; RSA

mouse serum albumin = target: T2, mouse serum albumin (mouse, UniProt P07724 25-608)
T2 construct: also called MSA; MuSA

rhesus serum albumin = target: T3, rhesus serum albumin (rhesus, UniProt Q28522 17-600)
T3 construct: also called RhSA; Rh-SA

human serum albumin = target: T4, human serum albumin (human, UniProt P02768 25-609)
T4 construct: immobilized on chips or coated on plates elsewhere; also called HSA; HuSA

T2 sequence (P07724 25-608 limits assumed): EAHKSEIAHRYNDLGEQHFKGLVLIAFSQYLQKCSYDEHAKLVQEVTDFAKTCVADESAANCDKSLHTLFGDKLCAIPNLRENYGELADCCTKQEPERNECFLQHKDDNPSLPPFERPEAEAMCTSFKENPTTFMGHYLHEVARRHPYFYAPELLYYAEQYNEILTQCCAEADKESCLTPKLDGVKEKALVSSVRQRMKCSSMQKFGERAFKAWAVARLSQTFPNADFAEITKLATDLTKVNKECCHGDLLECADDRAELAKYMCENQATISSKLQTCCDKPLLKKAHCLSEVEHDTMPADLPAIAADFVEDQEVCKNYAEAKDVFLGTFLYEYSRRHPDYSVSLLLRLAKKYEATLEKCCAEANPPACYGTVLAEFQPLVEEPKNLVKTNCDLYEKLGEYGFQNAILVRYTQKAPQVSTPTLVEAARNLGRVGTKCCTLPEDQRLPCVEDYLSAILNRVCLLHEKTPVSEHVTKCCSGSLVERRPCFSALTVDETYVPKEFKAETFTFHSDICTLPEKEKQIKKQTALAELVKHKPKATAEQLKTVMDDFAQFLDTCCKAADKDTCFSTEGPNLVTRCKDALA
T3 sequence (Q28522 17-600 limits assumed): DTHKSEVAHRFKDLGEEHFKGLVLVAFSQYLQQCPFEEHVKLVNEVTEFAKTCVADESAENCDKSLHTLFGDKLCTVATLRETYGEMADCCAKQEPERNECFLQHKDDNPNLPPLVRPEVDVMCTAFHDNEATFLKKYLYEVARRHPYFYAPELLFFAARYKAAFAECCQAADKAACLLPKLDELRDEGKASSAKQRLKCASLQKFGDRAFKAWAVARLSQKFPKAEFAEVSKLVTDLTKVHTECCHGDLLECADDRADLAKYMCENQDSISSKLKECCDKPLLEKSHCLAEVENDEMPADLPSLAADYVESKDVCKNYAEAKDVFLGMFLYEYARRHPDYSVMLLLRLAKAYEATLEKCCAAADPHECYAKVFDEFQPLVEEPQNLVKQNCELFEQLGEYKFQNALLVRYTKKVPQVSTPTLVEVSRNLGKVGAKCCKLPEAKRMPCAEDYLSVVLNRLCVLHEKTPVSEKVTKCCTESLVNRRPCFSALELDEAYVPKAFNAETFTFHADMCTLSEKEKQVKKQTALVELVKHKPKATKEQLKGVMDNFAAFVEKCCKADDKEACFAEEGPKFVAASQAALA
T1 sequence (P02770 25-608 limits assumed): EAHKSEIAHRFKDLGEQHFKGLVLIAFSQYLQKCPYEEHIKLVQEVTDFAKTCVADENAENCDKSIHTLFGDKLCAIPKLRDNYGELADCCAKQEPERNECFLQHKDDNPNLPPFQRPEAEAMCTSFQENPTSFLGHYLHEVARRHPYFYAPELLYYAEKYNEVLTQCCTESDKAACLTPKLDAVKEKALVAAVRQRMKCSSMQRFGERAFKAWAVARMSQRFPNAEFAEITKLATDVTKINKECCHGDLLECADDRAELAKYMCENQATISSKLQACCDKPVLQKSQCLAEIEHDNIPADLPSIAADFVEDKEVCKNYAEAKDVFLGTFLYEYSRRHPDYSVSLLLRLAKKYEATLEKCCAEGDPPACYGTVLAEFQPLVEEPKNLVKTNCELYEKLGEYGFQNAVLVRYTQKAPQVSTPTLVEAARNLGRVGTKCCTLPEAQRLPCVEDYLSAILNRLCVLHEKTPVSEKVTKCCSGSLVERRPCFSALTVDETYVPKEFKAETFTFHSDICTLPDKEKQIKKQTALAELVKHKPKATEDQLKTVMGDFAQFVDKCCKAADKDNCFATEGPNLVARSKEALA

Binder	koff (rat serum albumin) [s⁻¹]	koff (mouse serum albumin) [s⁻¹]	koff (rhesus serum albumin) [s⁻¹]	koff (human serum albumin) [s⁻¹]
5916_A04.PS5-2 (designed binder) MGVSDVPRDLEVVAATPTSLLISWDAPAVTVRYYRITYGREVQKYSDLGPLYIYQEFTVPGSKSTATISGLKPGVDYTITVYAVTGSGESPASSKPISINYRTPEDEDGCHHHHHH	0.000547	0.000307	0.000172	0.000148
5916_E03.PS5-2 (designed binder) MGVSDVPRDLEVVAATPTSLLISWDAPAVTVRYYRITYGREVQKYSDLGPLYIYQEFTVPGSKSTATISGLKPGVDYTITVYAVTGSGESPASSKPISINYRTPCHHHHHH	0.000786	0.000452	0.000272	0.000211
5963_A02.PS5-2 (designed binder) MGCSTSGVSDVPRDLEVVAATPTSLLISWDAPAVTVRYYRITYGREVQKYSDLGPLYIYQEFTVPGSKSTATISGLKPGVDYTITVYAVTGSGESPASSKPISINYRTPHHHHHH	0.000902	0.000492	0.000313	0.000253
5963_D01.PS5-2 (designed binder) MGVSDVPRDLEVVCATPTSLLISWDAPAVTVRYYRITYGREVQKYSDLGPLYIYQEFTVPGSKSTATISGLKPGVDYTITVYAVTGSGESPASSKPISINYRTPHHHHHH	0.000858	0.000499	0.000313	0.000247
5963_E01.PS5-2 (designed binder) MGVSDVPRDLEVVAATPTSLLISWDAPAVTVRYYRITYGREVQKYSDLGPLYIYQEFTVPGSKSTACISGLKPGVDYTITVYAVTGSGESPASSKPISINYRTPHHHHHH	0.000848	0.000507	0.000313	0.00025
